Reference: the supplement of paper PMC10126150
± gives the standard deviation of the averaged measurements.

Test system: ATP
Assay: switch fluorescence ratio, 500 uM ATP over buffer (Cy3 cluster intensity, sum of 5 cycles each) (fold (ratio)); higher = stronger signal-on switching upon ATP binding; sequences stand for … in TCGTCGGCAGCGTCAGATGTGTATAAGAGACAGTTTTTTTTTTTTTTTTTTTTTTTTT…TC
Settings: aptamer strand: ATP DNA aptamer (quencher-CACCTGGGGGAGTATTGCGGAGGAAGG + anchor), 100 nM annealed; ATP concentration: 500 uM
Outline: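 Per cluster, summed Cy3 intensity from the target cycles was divided by that from the buffer cycles to give the fluorescence ratio, then averaged per switch-domain sequence. Clusters outside 100-1000 RFU were excluded. The Cy3-labelled switching-strand clusters, on a modified Illumina MiSeq flow-cell, were annealed to 100 nM quencher-labelled ATP aptamer and imaged in selection buffer, then after 15 min with 500 uM ATP at 22 °C, for five cycles with NaOH stripping and re-annealing between them.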
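Note: ATP exposure 15 min at 22 °C before imaging.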

Sequence	switch fluorescence ratio
ATATAGAGGG	0.9958 ± 0.0031
TGAATTTAT	0.998 ± 0.012
TTTGGTTAGT	0.991 ± 0.023
GGGGGAAAGC	0.984 ± 0.049
ATCGTCCCTT	0.986 ± 0.022
TTGGCTCTTT	1.01 ± 0.02
TAGCAAAGAA	1.03 ± 0.03
AATAACGATC	1.037 ± 0.0063
TATGTTTTAT	1.02 ± 0.048
ATGGGGATGG	0.978 ± 0.033
TGATTAGAAG	0.985 ± 0.034
AACCTGGTAT	1.01 ± 0.035
AAAGATAGGC	0.954 ± 0.072
ATTAAACAG	1.05 ± 0.07
TTATCCAGGA	1.006 ± 0.0093
GGGCCTTTTT	0.9864 ± 0.006
TGGGATCGCC	1.02 ± 0.028
TTCGTTCCAT	0.986 ± 0.012
TAGTCTGGGC	0.986 ± 0.037
ACCGTAGGGG	0.973 ± 0.016
GGTAAGATCG	0.9785 ± 0.0077
ATTGTTACGT	0.998 ± 0.012
TCCTAGGGGT	2.44 ± 1.2
AATGTAGGCT	1.03 ± 0.027
GGGGTGAC	1.0027 ± 0.00099
ATTCGGGTGT	1.151 ± 0.0081

Sequence	switch fluorescence ratio
ACAATAAAAG	1.05 ± 0.044
GCTGCGGTTT	0.993 ± 0.013
TTGGGGCCGG	1.003 ± 0.0095
TCTTATGCTC	0.98 ± 0.022
TAATGTTGCA	1.02 ± 0.029
AGTGGGGAAT	1.01 ± 0.049
TTAACAGTTT	1.001 ± 0.0067
AAATTTTTTG	1 ± 0.023
CTCGTAATCT	1.571 ± 0.007
CTGGAGGGGG	1.01 ± 0.032
ACCGGAGGGG	1.17 ± 0.26
ATGAAGTAAT	1 ± 0.023
AGGAGAGGTG	1.102 ± 0.002
TCATTAGCCT	1.08 ± 0.019
TCGAATGGCT	1 ± 0.044
CCAACTTTAC	1.57 ± 0.037
TGGAGCGGGA	1 ± 0.022
ACTATTAATC	1 ± 0.02
GCTGGGGCCC	0.9977 ± 0.005
TTATGTCTTG	1.01 ± 0.019
ACCCTGTTGC	1.12 ± 0.072
AAAAAAAGGC	0.998 ± 0.042
ATGGACTATC	1.03 ± 0.046
AGTGAGAT	0.9943 ± 0.0097
ATTCACTCGG	1.38 ± 0.48
GGGGGGATGA	0.992 ± 0.024

Sequence	switch fluorescence ratio
AGGCAGGCCA	1.17 ± 0.056
ACACACGGTC	1.34 ± 0.1
ATTGAGTCTG	1.02 ± 0.047
TTTAGGATCT	0.954 ± 0.017
AGCAATGCTT	3.09 ± 0.29
ATGTATGTGG	0.987 ± 0.049
AAAAGAATGT	0.993 ± 0.021
AAGTTGACGG	0.985 ± 0.011
TTGGGGAAGA	1.02 ± 0.029
ATTATCAGCC	1.022 ± 0.0041
CGCAAAAGGG	1.54 ± 0.41
GGACGGGGTT	0.97 ± 0.019
TTTCGATGGT	0.959 ± 0.019
GTTTTCGACT	1.04 ± 0.0095
AGATTTTCGC	1 ± 0.0091
ATTTGGGAGT	1 ± 0.025
TTCAGGGGGC	1.02 ± 0.014
TTAGTTAGTT	0.98 ± 0.016
TGCATATGGG	0.978 ± 0.0058
GGGCTTTTTC	1.02 ± 0.034
CCAGGATTAT	1.027 ± 0.0034
TGATGATATG	0.9929 ± 0.0094
TAGTAGTTGC	1.032 ± 0.0059
TGCAAGGGGG	1.06 ± 0.077
TCGGGGGGA	1.03 ± 0.034
GAATTCGGGA	1 ± 0.013

Sequence	switch fluorescence ratio
GGGGCATGAG	1.04 ± 0.021
AAACGGATTC	0.999 ± 0.052
ATGGGCGTAT	1.04 ± 0.017
GAAGGGCGGA	1.018 ± 0.0045
TCGGTCGGGC	1.01 ± 0.013
TGTGACCGAA	0.9794 ± 0.0017
TAAAATGGGT	0.996 ± 0.03
ATATGCGGGC	1.02 ± 0.05
TCGCCTGGCG	0.972 ± 0.034
GAATTTCGGT	1.053 ± 0.0077
TTAAGGGGGA	1.01 ± 0.025
TGAGGTCGCG	0.9759 ± 0.0035
TTTATCAGAC	1.07 ± 0.059
CTTAACAGCG	1.01 ± 0.02
CTTCTAGAT	0.9895 ± 0.0013
TTTTAAGGTC	1.019 ± 0.0034
AACAAATTTT	1.012 ± 0.0097
CTGCATAGGT	1.31 ± 0.38
GCTGACAGCG	0.959 ± 0.017
GGGTTTTACA	0.9813 ± 0.0029
GTGCTGGATT	1.02 ± 0.018
GGGTTAGCGG	1.01 ± 0.027
CATAAAGGAT	0.97 ± 0.011
TAGGGTATGA	1.01 ± 0.02
GACAAAGGAT	1.04 ± 0.025
TGGGAATTGG	0.981 ± 0.012

Sequence	switch fluorescence ratio
GGGGGTACGC	1.03 ± 0.028
GAGGGCACTT	0.978 ± 0.043
TGTAGACTGA	1.01 ± 0.011
ATTTTGAACA	1.019 ± 0.0062
GTTGTGTCCG	1.01 ± 0.067
GAAGATTGGT	0.981 ± 0.028
GTTCTTGTAT	0.988 ± 0.029
GGTAGGGCGT	1.01 ± 0.027
GGGGACATGC	0.982 ± 0.078
AAGGTGATAG	1 ± 0.019
AAGGTGGGTT	1.01 ± 0.059
GTTGTTGTTT	0.999 ± 0.0094
TGGGTATATA	1.03 ± 0.016
CGTGCGGGAA	1.004 ± 0.0069
TTGGAGGGGA	1.01 ± 0.018
GGTGGTACGT	0.999 ± 0.022
ACTTTGTCAT	0.981 ± 0.017
CGTAGCGGGG	1.11 ± 0.022
TACTTGAGGG	1.01 ± 0.019
AAATTAGCGG	0.987 ± 0.032
GTTATCTTAG	1.01 ± 0.025
GGGAGACCAA	0.9822 ± 0.0031
TGCATTGGTG	1.018 ± 0.0019
TTCTTTCGCG	0.9467 ± 0.0023
CTGCTCTGTG	0.968 ± 0.014
AGGTGCATAT	1.045 ± 0.0041

Sequence	switch fluorescence ratio
TGGGACGTTA	1.04 ± 0.036
CGTGGGGAAG	0.998 ± 0.023
GGGCGGTGGG	1 ± 0.068
GGGCATCGAC	1.05 ± 0.017
CAATATGACT	0.991 ± 0.092
TCGGAAGTCA	1.012 ± 0.0042
GGATATGATC	1.03 ± 0.031
TTGGATAGGT	0.981 ± 0.027
TTGGGGTGAG	0.981 ± 0.022
ATCGTACATA	1.12 ± 0.064
TATTTTGGGA	1.02 ± 0.021
GTCAGCAAAT	1.05 ± 0.02
TTTAAACTT	1.63 ± 1.1
GAAATACGGG	1.09 ± 0.043
ATTGGAGGAT	0.96195 ± 0.0005
CGCGGTAGCG	0.972 ± 0.041
AGGCTGGTCT	0.952 ± 0.1
TCCAAGGCTT	1.038 ± 0.0014
ATAGATAGGG	0.969 ± 0.021
CCGATTGGTC	1.117 ± 0.0062
AGGGTCGCTA	1 ± 0.014
AAGTACGTAG	1.011 ± 0.0065
ATATGGCACT	1.008 ± 0.0034
